What was measured:
[1] = target: T1, His-tagged full-length FADD F25Y (UniProt Q13158 1-208, F25Y); assay: pull-down
T1 sequence: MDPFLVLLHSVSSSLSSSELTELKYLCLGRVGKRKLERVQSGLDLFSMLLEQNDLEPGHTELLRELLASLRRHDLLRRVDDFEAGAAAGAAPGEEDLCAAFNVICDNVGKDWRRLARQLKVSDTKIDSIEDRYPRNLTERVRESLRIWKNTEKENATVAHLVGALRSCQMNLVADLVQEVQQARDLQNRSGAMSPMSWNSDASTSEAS

[2] = target: wild-type cFLIP^tDED (residues 1-181) (UniProt O15519 1-181); assay: crystal structure
cryo-EM structure = target: the molecule itself; assay: cryo-EM structure
[3] = target: full-length Casp-8 F122G/L123G/C360A/D374A/D384A (UniProt Q14790 1-479, F122G | L123G | C360A | D374A | D384A); assay: co-purification

B1: binary CF^H7G-C8^FGLG complex, His-tag removed, SEC-purified (complex)
chain 1: […]
chain 2: MDFSRNLYDIGEQLDSEDLASLKFLSLDYIPQRKQEPIKDALMLFQRLQEKRMLEESNLSFLKELLFRINRLDLLITYLNTRKEEMERELQTPGRAQISAYRVMLYQISEEVSRSELRSFKGGLQEEISKCKLDDDMNLLDIFIEMEKRVILGEGKLDILKRVCAQINKSLLKIINDYEEFSKER
binding result [1]: binds

B2: Casp-8^tDED_FGLG (procaspase-8 tandem DED, residues 1-185, F122G/L123G) (domain or fragment)
chain: MDFSRNLYDIGEQLDSEDLASLKFLSLDYIPQRKQEPIKDALMLFQRLQEKRMLEESNLSFLKELLFRINRLDLLITYLNTRKEEMERELQTPGRAQISAYRVMLYQISEEVSRSELRSFKGGLQEEISKCKLDDDMNLLDIFIEMEKRVILGEGKLDILKRVCAQINKSLLKIINDYEEFSKER
binding result [2]: binds

B3: His-tagged full-length FADD F25G (natural protein)
chain: MDPFLVLLHSVSSSLSSSELTELKGLCLGRVGKRKLERVQSGLDLFSMLLEQNDLEPGHTELLRELLASLRRHDLLRRVDDFEAGAAAGAAPGEEDLCAAFNVICDNVGKDWRRLARQLKVSDTKIDSIEDRYPRNLTERVRESLRIWKNTEKENATVAHLVGALRSCQMNLVADLVQEVQQARDLQNRSGAMSPMSWNSDASTSEAS
stoichiometry N (cryo-EM structure): 3 molecules in the complex
binding result [3]: binds
